Data set [1] concerns the molecule itself. Briefly: cryo-EM structure; single-particle cryo-EM of the purified 2:2 PAPP-A(E563Q)·STC2 complex from co-cultured 293T lines; 0.6 mg/mL; 20 mM HEPES, 100 mM NaCl, 1 mM CaCl2, pH 7.4.
The target in data set [2] is T1, 415-residue monomeric C-terminal PAPP-A fragment, PA(T1213-G1627) (human, UniProt Q13219 1213-1627).
T1 construct: PAPP-A, human, residues T1213-G1627 (SCR1-5 and the C domain with LNR3); also called PAPP-A(T1213-G1627); C-terminal fragment of PAPP-A truncated at SCR1; source: 293T cells, transient transfection
T1 sequence (looked up): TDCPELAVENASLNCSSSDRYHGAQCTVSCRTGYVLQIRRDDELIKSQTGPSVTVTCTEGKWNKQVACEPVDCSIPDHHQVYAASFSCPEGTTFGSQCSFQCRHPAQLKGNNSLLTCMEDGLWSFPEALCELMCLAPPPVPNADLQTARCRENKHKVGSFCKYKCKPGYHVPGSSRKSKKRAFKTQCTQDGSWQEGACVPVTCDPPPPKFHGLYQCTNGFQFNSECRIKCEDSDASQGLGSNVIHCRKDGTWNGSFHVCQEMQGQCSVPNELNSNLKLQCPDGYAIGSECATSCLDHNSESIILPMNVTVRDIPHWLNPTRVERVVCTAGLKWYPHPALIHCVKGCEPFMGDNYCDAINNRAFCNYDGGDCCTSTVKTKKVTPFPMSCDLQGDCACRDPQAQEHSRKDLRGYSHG
Briefly: SPR; Biacore 3000, 25 °C; PA_T1213-G1627 amine-coupled to CM5 (7000 RU); IGFBP-4 injected 5 min at 10 µl/min; 10 mM HEPES pH 7.5, 150 mM NaCl, 2 mM CaCl2, 0.05% Tween-20; also with 10 mM EDTA. Conditions: both partners purified. On the technique in general: In SPR one partner is held on a chip, and binding of the other changes the refractive index at the surface.

The values below come from PMC9579167, “Structure of the proteolytic enzyme PAPP-A with the endogenous inhibitor stanniocalcin-2 reveals its inhibitory mechanism” (Nature Communications, 2022).

B1: active site-inactivated human PAPP-A (E563Q) (enzyme, UniProt Q13219 82-1627, looked up)
chain: EARGATEEPSPPSRALYFSGRGEQLRLRADLELPRDAFTLQVWLRAEGGQRSPAVITGLYDKCSYISRDRGWVVGIHTISDQDNKDPRYFFSLKTDRARQVTTINAHRSYLPGQWVYLAATYDGQFMKLYVNGAQVATSGEQVGGIFSPLTQKCKVLMLGGSALNHNYRGYIEHFSLWKVARTQREILSDMETHGAHTALPQLLLQENWDNVKHAWSPMKDGSSPKVEFSNAHGFLLDTSLEPPLCGQTLCDNTEVIASYNQLSSFRQPKVVRYRVVNLYEDDHKNPTVTREQVDFQHHQLAEAFKQYNISWELDVLEVSNSSLRRRLILANCDISKIGDENCDPECNHTLTGHDGGDCRHLRHPAFVKKQHNGVCDMDCNYERFNFDGGECCDPEITNVTQTCFDPDSPHRAYLDVNELKNILKLDGSTHLNIFFAKSSEEELAGVATWPWDKEALMHLGGIVLNPSFYGMPGHTHTMIHQIGHSLGLYHVFRGISEIQSCSDPCMETEPSFETGDLCNDTNPAPKHKSCGDPGPGNDTCGFHSFFNTPYNNFMSYADDDCTDSFTPNQVARMHCYLDLVYQGWQPSRKPAPVALAPQVLGHTTDSVTLEWFPPIDGHFFERELGSACHLCLEGRILVQYASNASSPMPCSPSGHWSPREAEGHPDVEQPCKSSVRTWSPNSAVNPHTVPPACPEPQGCYLELEFLYPLVPESLTIWVTFVSTDWDSSGAVNDIKLLAVSGKNISLGPQNVFCDVPLTIRLWDVGEEVYGIQIYTLDEHLEIDAAMLTSTADTPLCLQCKPLKYKVVRDPPLQMDVASILHLNRKFVDMDLNLGSVYQYWVITISGTEESEPSPAVTYIHGSGYCGDGIIQKDQGEQCDDMNKINGDGCSLFCRQEVSFNCIDEPSRCYFHDGDGVCEEFEQKTSIKDCGVYTPQGFLDQWASNASVSHQDQQCPGWVIIGQPAASQVCRTKVIDLSEGISQHAWYPCTISYPYSQLAQTTFWLRAYFSQPMVAAAVIVHLVTDGTYYGDQKQETISVQLLDTKDQSHDLGLHVLSCRNNPLIIPVVHDLSQPFYHSQAVRVSFSSPLVAISGVALRSFDNFDPVTLSSCQRGETYSPAEQSCVHFACEKTDCPELAVENASLNCSSSDRYHGAQCTVSCRTGYVLQIRRDDELIKSQTGPSVTVTCTEGKWNKQVACEPVDCSIPDHHQVYAASFSCPEGTTFGSQCSFQCRHPAQLKGNNSLLTCMEDGLWSFPEALCELMCLAPPPVPNADLQTARCRENKHKVGSFCKYKCKPGYHVPGSSRKSKKRAFKTQCTQDGSWQEGACVPVTCDPPPPKFHGLYQCTNGFQFNSECRIKCEDSDASQGLGSNVIHCRKDGTWNGSFHVCQEMQGQCSVPNELNSNLKLQCPDGYAIGSECATSCLDHNSESIILPMNVTVRDIPHWLNPTRVERVVCTAGLKWYPHPALIHCVKGCEPFMGDNYCDAINNRAFCNYDGGDCCTSTVKTKKVTPFPMSCDLQGDCACRDPQAQEHSRKDLRGYSHG
modifications: N-glycans at N390, N402, N429, N480, N601, N725, N825, N1323
notes: numbers count on UniProt Q13219; also called pregnancy-associated plasma protein-A; pappalysin-1
Regarding B1, in data set [1], the binding result is on record as “binds”.

B2: human IGFBP-4 (natural protein, UniProt P22692 22-258, looked up)
chain: DEAIHCPPCSEEKLARCRPPVGCEELVREPGCGCCATCALGLGMPCGVYTPRCGSGLRCYPPRGVEKPLHTLMHGQGVCMELAEIEAIQESLQPSDKDEGDHPNNSFSPCSAHDRRCLQKHFAKIRDRSTSGGKMKVNGAPREDARPVPQGSCQSELHRALERLAASQSRTHEDLYIIPIPNCDRNGNFHPKQCHPALDGQRGKCWCVDRKTGVKLPGGLEPKGELDCHQLADSFRE
notes: also called pBP4mH; source: 293T cells, transient transfection
With B2, the binding result in data set [2] is given as “binds”.
